Measured values: the domain aggregation screens of Martell et al. (2025)

Assay: soluble fraction after stress (log2 fold change); higher = more stays soluble; pooled small domains, quantitative proteomics
Conditions: stress: pH 4
Procedure, shortened: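 After pH 4 stress, pooled custom libraries of small protein domains were quantified with high-throughput quantitative proteomics. Aggregation propensity is taken from the fold change in each domain's soluble amount following the acid stress. The scale is log2, where higher values mean more stayed soluble.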

Sequence | soluble fraction (log2)
HMSRLGINTTIEDIKMVGKIIMPLLKQGQSVYQILASHPEIPYSEKTLYSYIEDNIFKDAGIDISVFDL | -0.491
HMKETKVIHVHLIFKKTSRFFGSISAIYSEFTAEEIGITEETLRHKGLSDGVSFATKKAIIQQGVLIR | -1.45
HMYGTQTVNRGAVQPGMLVKHKDSTWTASANARGRLYLHRGVEMTYTRDLLVEVYLNGLGNGL | -0.342
HMSEQYEQIQLALKTLTQDEQDIVRLVVVEGASLRTAGKNLGVSAMTIQRRLKRALARLRDLLAS | -0.858
HMEGLEKDDGGYYFEKDNGERARNEWVYVEYEGKGYWYYMTDYGYPLRSAITPDGYKVNSNGHWIDEGN | -1.12
HMVTYELTEDEKFIVSLLEKENSQPIGALKDKSALSGKKWDAAMKGLAKHGLTKVVVDGDNKLVVL | -0.184
HMGQMGHAVVAKTDLAVGTPLTRDLVAVREVPVEWLHSSAITPEQFERAAGAVLAQPARGGEPLVWSQLEE | -0.201
HMTSVAGIERFLASGAIKGMGAATAKLIVEHFGADTLNMLDMYPERLTEIKGIGPKKATAIIEGYRELS | -0.595
HMTSSSGTITADWLNVRSGAGTNFSRLGSIAGGTRLTVISVHGEWYKITASFEGEIRTGYVHSQYVQMDGE | -1.59
HMTIKTAFPAEDLAKPDNFKSLLYYFGLLTIRGTKWGSTLLAIPNLTVREQLYSYLVEAYRSADL | 0.244
HMKLTEGETIFLNESDTADWKKIPGIGSVYASRIVKYRNLLGGFVSVNQLREVYGIDDELFAKIYPYI | -0.0375
HMAPEPFIVQITASSLNVRKGPGTSYAVAQTVSKGQVFTIVQQQGGWGKLKSGAGWISLKYTAR | -0.0269
HMPGTPADQVAELQTKVGTETKTGDMITQDDVKLLQTALDPLAKMNDRIQAAKILESKGIVTSDGNLRT | 0.0934
HMQMTKSEFLDALRRALNGNMAAASVDDNIRFYDSYFYTEETKGRSEAEILSELGDPRILARTLIDAAD | -0.382
HMEDIEEVIVEIDTVLRTHFDRGRTEVLFAEIETAGGRPFMTYLALLFMAHRGSVRLQQDDLFGDLWVKDP | -0.959
HMNKKETRLNNFIHFLKIRNSITVKEMANHLNVSEMTVRRDIKELTADHTINFENGKIMFNPQSSL | 0.33
HMADKHVAAALLKLMDHLVGGRQYAFMKGRLTINKKVVLEATEVSAYRRGTGLSDADWQQRYE | -0.978
HMKQTDQELAEMLRFRAAQRGLLMSDEVVNYVMTRVERSAKSLIMLLDRIDRAALAQARPVTIPLINEL | -0.606
HMATVPNVVGLSEEKAKSRLANNGLNVSVTTEEVSDKSKDGIVSSQTSEGDTVKQGATITITVGKYVEK | -0.0691
HMADLSAYAGKEGMTDSVLRPSGKVDIEGHILDAVSRGDFIEKGKRVIVIKAEGSYLVVKKRMP | 0.166
HMAEEPLRIWTDLQGRSIEASFIKFSGNNIVIKMKSGRDYEVARSLFSPGDQKYLSDLKKSTPE | -0.0706
HMDIPITFEQLPAKAQAFVKQYFKIEEIASVWRDDDIHDQDYKVYFNDGSEIEFYANGDWEEV | -0.468
HMTQQNRDELYRRMIDAGWDQLVRNGIRSLRVEQVAAAVGIAKGTFYHFFDSKDDFIYAMLMENRQ | -1.03
HMTRRGPLTEGDRVQVRDPKGRFHQVILVRGGRFQSNRGGFNHDDVIGRPDGQVIITDEGRQFQIL | 0.0981
HMLGAGFDSDLTARENIFLNGALLGHSRAVMRGYYDDIVNFAELHDFMDVPVKNFSSGMTSRLAFSIATIG | 0.183
HMKIEEVIEKLKTDSIISRKEYEDIVRQINPNLSDRTIFWQLAKLQDMGVLQKIGQNSFHVRN | 0.0251

Sequence | soluble fraction (log2)
HMRSKTDLVYEEIKKLILRGELSSDTPISENHLARRFEISRTPIREALKRLHIEGFVRIIPNHGVFVR | -0.304
HMSIGLEDLIEQKGVADTDLRPSGWINVGNQRIFVVTEGSYIDQNDNVIILSVDGNRVVVRKI | -0.941
HMEDPLAAQWKQGRKLFHDDYGYGIISKAFTAGDELVIMVQFENGGEKRFLPKYQAHNLLLVEQ | -1.3
HMGLAALLQSGPVAGTVLSHQPGGKVVIAFQGQAYPLNLKGRTLQPGQSVLARMAGEQISLEVI | -0.0159
HMYLPPYMEVRAVMILDGKPMALMYIEGEGDGLIVSPGYKFDNGKGKVVSITPTKVVVLWAGTKMELG | -1.17
HMRSPVDALSNRELQVLQMVGRGLSSRQVAEALHLSVKTVEAHRQRIKGKLGLRTGAQLVQFAANWVTG | -0.182
HMARTLSVTVSENYANMRLDSFLFESGLYPSRSKAVKQIESGKVFVNGNEPTKKTIVVANDFIVYEEYAEE | -1.15
HMAEAAVELSQQILARLLEAGGSLPLSDKSSPEDIHRLFGVSKRTFKKAIGGLYKKGLILIHPERIELP | -0.0448
HMSSVTGMERFLSSGAVKGIGKTMAARIVEHFGTETMTVLESFPERLAEVPGIGAKKAEAIGQSYSEISD | -0.259
HMITTEEVLNRIRKKVDHPATIRELQKALSIADDDRHRFRRRIRTLVASGALVRIRGNRYGLPSK | 0.0429
HMSSYAEVMERSKYLQLHKYKIWKSETDGFWRTYYLNEQGKRKMKKLKHSEDMIDFVIEYVQNNE | -1.06
HMVSNRMVYSDFQQKWINNQVESINVNADKMTIEVTTQDEKKYTVYAPSSMIEFLNEQYPKDDIKIEYVAP | -0.94
HMIMGTIEKRGPFSFRIGVQVRLPDGSWEWIRDTIHVSPDLSARAARKQAEMALARLEADVYEGKRKPD | -0.0141
HMDLHSQVFESYERKIREVLREGPLTFEEILHAFALKRHETVAQVITYLMDEGKMSDSGDGKLIYSG | -0.295
HMSSPPNPQLAKRYISYSVDDIARLFGIHRHTVREWIKRGLPVIDQQRPLLVQGADLAEFLRKRRA | 0.162
HMDTKLFNYGVGKHAYISWNEGGKRTAYIGFGNDGADVLTINNVKQGGSLGIYKDKITLNSQTVLTD | -0.381
HMPTLTPFDVARIENAINPRLNLETAAKLKPWIAAGYTAQETADGTGFSPDTVKKYAAIFRK | 0.146
HMVDEAQSLERNVLLTVLSRIGRDSRVVLTHDIAQRDNLRVGRHDGVVAVVDRLKGHPLFAHVTL | -0.0346
HMFKYLLDTNIVIYVIKKRPIEVMGVFNQNANRMAISAITFSELQHGAEKSVRVQENLNAIEEFTTLIDI | -0.537
HMEKYNIIVDNEDNFRLDKIIALNMKDLSRTMIQEMINRGLVSVNGKITKASYKTKLNDQIEIMIED | -0.171
HMDHTYKHIELTGSSEKGIEEAVQNALAKASESVQNMRWLEVTDTRGHIEDGRVAHWQVTVKVGFTL | 0.22
HMNVVGAKGRIIKISSSEEKMAVAEIEGHGEWNIRTNSEIELFVGKSVEVIEMKGNYLLVNQI | -1.81
HMAIRPDAAVSSHAVKQRLQSLIRAEDPAAPLSDEALRLALSALGIGVSRRAVAKYRAEMGIPSSSQRKK | 0.168
HMIRDTTMYPVSVNGKKRYEWTVSKSISDDELKQQVLELEEIKKWIEGHEIKKLIFVPGRAINIV | -0.743
HMGSWDDFFNAIRLDNPNTLQALLQRGFDPNTVDQQGTPALMRALQEQSYRAAEVLADHPQI | -0.584
HMKPTSLLGIERYLGSGLIRGVGPSTAKQIVEHFGMETMEVLTEHPERLQEVHGMGRKRWRQIAESFQEQQ | -0.0617

Sequence | soluble fraction (log2)
HMKRWHVGDPIDALTAAGKVPSWSTIRQRFWKTIAALYPDIEQSERLQRGLAMLDEAGTSIELHHP | -0.615
HMDTQITPNKAKEIALAHAGVTEAAANFKKIKLDNKNGKSIYEIEFIANKSRYEFIVDAKNGSIIKFEK | 0.102
HMNQILDFTREVKNLPEQDKIKIVEALWSIIYSNKDADIYETNLMRRLAGLLYIDNKTMGDIKEKIKQNL | -0.421
HMQGENDVTIDPKKLTIGDLAKEISKIEDSEELNNILVAEKEGKGRKGAINAITERIENVSGGTG | 0.22
HMPRQREVPDVSGWTEQHAKVYLEALGYRVKVIYLEVSSFDKGLVQETSPAKGSKVEEGDTIDLRVSNQE | 0.299
HMENTVVMPNLLGKTMTEAKIELKDLSISITLKGSENSSQYAAGQIISQSVDSGTRVAVGSSVEVTIAGS | -0.0377
HMIHTYVETRKVGNNDGLIRVDNKYYRVPQHLVGMKVQIQIDEATISVLQGGVMVATLDKTADVFNPQA | -1.74
HMAVETYRVKKSDTMQTIADRFGLSVEELLEYNQAYKTRELRARDILIIPSRKERKKLQQQKAQAAAQVVQ | 0.404
HMSLNQRIKEARIKMGYTQEQLGNLIGVAKTTISGYEKNREPDAATIGLIIDALKVDANFLFQ | -1.2
HMDDATTQLADRLLDLRRKAGYSQEQLADLLGVSRQAISKWEGAQGRPEVDNVVKLAQIYRVSTDFILTGS | -0.656
HMDGVLVYKEGMTVADMATGLGKTIAQVVMKLMQLGIMANQNQSVDRETVELVALDFGYELKD | -1.39
HMTKSEWLRESREHLGLSQTDLRNLLNTALNRSYDKSRISRWENSKENIPAEVVKQIESLIATR | 0.406
HMEIELHNLALNIKEFRKKNKLSQAELAEKLGVARTTIGYYERAEVEPNIYTLVQLSKLMNRSIDSLLGL | -0.0684
HMGANSAYMAMRDRIQQRLLAELSPGVTRSDTAEVRRVVERIFNETTAELGLPLSRLERNDIFDLVLADIL | -1.72
HMKIDNIIIYITGGVKKEGVYELPDGSRISDAIEQAEGLKANADTSSINLAYKLEDGMKIKIPLQGEN | -0.664
HMREEFIGVLDGKVAIFHGRPERKGPLKEVTAIEVDKLPRQEQADLEKGLVIRTDKEKLQLMEGLAALLD | -0.171
HMSTVELPVQINGKVRGRITVPANAGQEDVKQAALADSKVQRYIEGASIRKVIVVPRKLVNIVV | ≥ 0.43
HMGHLSNENAGRLLDRVLNDKIHAIMLGHLSKENNMPELAHEAVRMEITMGESRYKADDFPIYVA | -0.00322
HMTKTRTEILEYLKQNWSVTVSASDIKKHLEEKEIKANTTTIYRYLDKLLAEHVIIKYADAGSERAVYQYS | -0.687
HMKDYTIDDIINSKVEHPLGGYQSRFKVGEYEVSVVGGRQTNHGDFIHTFELAIFDKNNNFLRNLTPVTID | -0.411
HMGVIGADIRALRVSRGWTLSDLAEALDRSVGWLSQVERDVSEPALADIRRIAGIFDLPVSFFFSD | -1.64
HMAPNDELTRQVISVLSGTPQQAFNYKQISKKLNINDSSERRMVSNILRELAGKGEIVEVYQGKYRSKAPA | 0.116
HMRTRSDVKRAAIIQAAKDAFQEYGVNATSMDKLAEMASVSKRTVYNHFSAKEELVMHIVKE | 0.174
HMDREIVEAIVPLEAAGKRFDAALAEMFPEFSRSRLTEWIKAGDALLAGEIVKPKVSVRGGEAVSLSIRV | -0.256
